# How the values were obtained:
# [1] = biological target: VEGFR-2 EC+TM-(GGS)5-YFP or -mCherry (human) (UniProt P35968)
# [2] = biological target: full length wild-type human VEGFR-2 (human) (UniProt P35968)
# [3] = biological target: VEGFR-2 EC(C482R)+TM(N762I-V769I-G770I)-(GGS)5-YFP or -mCherry (human) (UniProt P35968); test: FRET or BRET; QI-FRET between YFP- and mCherry-tagged copies in single plasma membrane-derived vesicles of co-transfected CHO cells, no ligand; monomer-dimer equilibrium model, dimer to monomers; two-dimensional concentrations (receptors per square micron)
# [4] = biological target: VEGFR-2 EC(C482R)+TM-(GGS)5-YFP or -mCherry (human) (UniProt P35968); test: FRET or BRET; QI-FRET in CHO plasma membrane-derived vesicles with 3 ug/ml VEGF-A121, 1 hr at room temperature
# [5] = biological target: VEGFR-2 EC(C482R)+TM-(GGS)5-YFP or -mCherry (human) (UniProt P35968); test: FRET or BRET; QI-FRET between YFP- and mCherry-tagged copies in single plasma membrane-derived vesicles of co-transfected CHO cells, no ligand; monomer-dimer equilibrium model, dimer to monomers; two-dimensional concentrations (receptors per square micron)
# [6] = biological target: VEGFR-2 EC+TM(E764I-T771I-F778I)-(GGS)5-YFP or -mCherry (human) (UniProt P35968); test: FRET or BRET; QI-FRET in CHO plasma membrane-derived vesicles with 3 ug/ml VEGF-A121, 1 hr at room temperature
# [7] = biological target: VEGFR-2 EC+TM(E764I-T771I-F778I)-(GGS)5-YFP or -mCherry (human) (UniProt P35968); test: FRET or BRET; QI-FRET between YFP- and mCherry-tagged copies in single plasma membrane-derived vesicles of co-transfected CHO cells, no ligand; monomer-dimer equilibrium model, dimer to monomers; two-dimensional concentrations (receptors per square micron)
# [8] = biological target: VEGFR-2 EC+TM(N762I-V769I-G770I)-(GGS)5-YFP or -mCherry (human) (UniProt P35968); test: FRET or BRET; QI-FRET in CHO plasma membrane-derived vesicles with 3 ug/ml VEGF-A121, 1 hr at room temperature
# [9] = biological target: VEGFR-2 EC+TM-(GGS)5-YFP or -mCherry (human) (UniProt P35968); test: FRET or BRET; QI-FRET in CHO plasma membrane-derived vesicles with 3 ug/ml VEGF-C, 1 hr at room temperature
# [10] = biological target: VEGFR-2 EC+TM-(GGS)5-YFP or -mCherry (human) (UniProt P35968); test: FRET or BRET; QI-FRET in CHO plasma membrane-derived vesicles with 3 ug/ml VEGF-A165a, 1 hr at room temperature
# [11] = biological target: VEGFR-2 EC+TM-(GGS)5-YFP or -mCherry (human) (UniProt P35968); test: FRET or BRET; QI-FRET in CHO plasma membrane-derived vesicles with 3 ug/ml VEGF-A165b, 1 hr at room temperature
# [12] = biological target: VEGFR-2 EC+TM-(GGS)5-YFP or -mCherry (human) (UniProt P35968); test: FRET or BRET; QI-FRET in CHO plasma membrane-derived vesicles with 3 ug/ml VEGF-A121, 1 hr at room temperature
# [13] = biological target: VEGFR-2 EC+TM-(GGS)5-YFP or -mCherry (human) (UniProt P35968); test: FRET or BRET; QI-FRET in CHO plasma membrane-derived vesicles with 3 ug/ml VEGF-E, 1 hr at room temperature
# [14] = biological target: VEGFR-2 EC+TM-(GGS)5-YFP or -mCherry (human) (UniProt P35968); test: FRET or BRET; QI-FRET in CHO plasma membrane-derived vesicles with 3 ug/ml VEGF-D, 1 hr at room temperature
substance,measurement,setting,value
VEGF-E (ligand),Intrinsic FRET of the EC+TM dimer (YFP/mCherry) with 3 ug/ml ligand; 0.61 without ligand,[1],0.44
same,"phosphorylation of full-length VEGFR-2 (Tyr 1175, Western blot) with 3 ug/ml ligand against no ligand",[2],< 10 fold
VEGFR-2 EC(C482R)+TM(N762I-V769I-G770I)-(GGS)5-YFP or -mCherry (from UniProt P35968 20-1356) (domain or fragment),percent dimer,[3],100%
VEGFR-2 EC(C482R)+TM-(GGS)5-YFP or -mCherry (from UniProt P35968 20-1356) (domain or fragment),percent dimer,[4],100%
same,percent dimer,[5],100%
VEGFR-2 EC+TM(E764I-T771I-F778I)-(GGS)5-YFP or -mCherry (from UniProt P35968 20-1356) (domain or fragment),percent dimer,[6],100%
same,percent dimer,[7],100%
VEGFR-2 EC+TM(N762I-V769I-G770I)-(GGS)5-YFP or -mCherry (from UniProt P35968 20-1356) (domain or fragment),percent dimer,[8],100%
VEGFR-2 EC+TM-(GGS)5-YFP or -mCherry (from UniProt P35968 20-1356) (domain or fragment),percent dimer,[9],100%
same,percent dimer,[10],100%
same,percent dimer,[11],100%
same,percent dimer,[12],100%
same,percent dimer,[13],100%
same,percent dimer,[14],100%
human VEGF-C (from UniProt P49767 112-227) (ligand),Intrinsic FRET of the EC+TM dimer (YFP/mCherry) with 3 ug/ml ligand; 0.61 without ligand,[1],0.45
same,"phosphorylation of full-length VEGFR-2 (Tyr 1175, Western blot) with 3 ug/ml ligand against no ligand",[2],< 10 fold
human VEGF-D (from UniProt O43915 89-205) (ligand),Intrinsic FRET of the EC+TM dimer (YFP/mCherry) with 3 ug/ml ligand; 0.61 without ligand,[1],0.43
same,"phosphorylation of full-length VEGFR-2 (Tyr 1175, Western blot) with 3 ug/ml ligand against no ligand",[2],< 10 fold

# Source: publication PMC4829425
